The source of these data is publication PMC11415531 (Synthetic and Systems Biotechnology, 2024).

This data set concerns the molecule itself. Put plainly: crystal structure.

B1: S-adenosyl-L-methionine-dependent methyltransferase RdmB from Streptomyces purpurascens (enzyme)
chain: MSSSSPGEPLEPTDQDLDVLLKNLGNLVTPMALRVAATLRLVDHLLAGADTLAGLADRTDTHPQALSRLVRHLTVVGVLEGGEKQGRPLRPTRLGMLLADGHPAQQRAWLDLNGAVSHADLAFTGLLDVVRTGRPAYAGRYGRPFWEDLSADVALADSFDALMSCDEDLAYEAPADAYDWSAVRHVLDVGGGNGGMLAAIALRAPHLRGTLVELAGPAERARRRFADAGLADRVTVAEGDFFKPLPVTADVVLLSFVLLNWSDEDALTILRGCVRALEPGGRLLVLDRADVEGDGADRFFSTLLDLRMLTFMGGRVRTRDEVVDLAGSAGLALASERTSGSTTLPFDFSILEFTAVSEEAAPAAQASEALPAQE
Take B1: the binding result is on record as “binds”.
